Target: T1, C-terminal shedding-resistant peptide of MSLN (residues 582-598) (human, UniProt Q13421-3)
T1 construct: Mesothelin, human, 17-residue peptide I582 to S598, holds most of the major sheddase cleavage sites; numbers count on: the 622-residue precursor, isoform Q13421-3; also called C-terminal peptide; 17-residue peptide; source: synthetic peptide (GenScript)
T1 chain: IPNGYLVLDLSMQEALS
Experiment: crystal structure; synthetic peptide 582-598 mixed with Fab(15B6) at a molar ratio of 3:1 in 20 mmol/L Tris, 100 mmol/L NaCl, pH 7.5, overnight at 4°C; 1.74 Å
Conditions: both partners purified

- binding result: binds
B1: Fab fragment of mAb 15B6 (Fab, V domains shown)
VH: EVQLQQSGPVLVKPGASVKISCKASGYSFTGYYMHWVRQSNGKSLEWIGRINPYTGVPSYKHNFKDKASLTVDKSSSTAYMELHSLTSEDSAVYYCARELGGYWGQGTTLTVSS
VL: QAVVTQESALTTSPGETVTLTCRSSTGAVTTGNYPNWVQEKPDHLFTGLIAGTNNRAPGVPARFSGSLIGDKAALTITGAQTEDEAIYFCALWFSSHWVFGGGTKLTVL
notes: heavy chain of the Fab in PDB 7U8C (214 residues modelled); mouse IgG2b; light chain of the Fab in PDB 7U8C (213 residues modelled); mouse lambda; mouse isotype IgG2b lambda; raised against the peptide I582-S598; also called Fab(15B6); Fab of Mab 15B6; source: mAb 15B6 obtained from GenScript, digested with immobilised papain, Fc removed on Protein A
